Test results from paper PMC9902655.
Values joined by “and” are separate entries in the source; they are usually repeats but may differ in a detail not shown here. Equal entries are not always repeated.

Target: human adiponectin (ADPN) from egg white of OVA ADPN knock-in chickens (human) (UniProt Q15848)
Assay: non-reducing SDS-PAGE and Western blot; crude egg white of KI hens 0090 and 0141, diluted, in RIPA buffer and Laemmli sample buffer, 95°C 5 min, 10% gel, non-reducing; anti-adiponectin blot; under reducing conditions the multimer bands decreased and the monomer band increased

stoichiometry N: 3 and 6
Substance: human adiponectin (ADPN) from egg white of OVA ADPN knock-in chickens (from UniProt Q15848 19-244) (natural protein)
